Source: patent US5684146

Tests used:
[1] = molecular target: haemagglutinin (HA) of human influenza A type virus strain A/Okuda/57 (H2N2 subtype) (human influenza A type virus, H2N2 subtype, strain A/Okuda/57)
[2] = molecular target: haemagglutinin (HA) of human influenza A type virus strain A2/Aichi/2/68 (H3N2 subtype) (human influenza A type virus, H3N2 subtype, strain A2/Aichi/2/68) (UniProt P03437)
[3] = molecular target: haemagglutinin (HA) of human influenza A type virus strain A/PR/8/34 (H1N1 subtype) (human influenza A type virus, H1N1 subtype, strain A/PR/8/34) (UniProt P03452)
[4] = molecular target: haemagglutinin (HA) of human influenza A type virus strain A1/FM/1/47 (H1N1 subtype) (human influenza A type virus, H1N1 subtype, strain A1/FM/1/47)
[5] = molecular target: haemagglutinin (HA) of human influenza A type virus strain A/Suita/1/90 (H3N2 subtype) (human influenza A type virus, H3N2 subtype, strain A/Suita/1/90)
[6] = molecular target: haemagglutinin (HA) of human influenza A type virus strain A/Sichuan/2/87 (H3N2 subtype) (human influenza A type virus, H3N2 subtype, strain A/Sichuan/2/87)
[7] = molecular target: haemagglutinin (HA) of human influenza A type virus strain A/Izumi/5/65 (H2N2 subtype) (human influenza A type virus, H2N2 subtype, strain A/Izumi/5/65)
[8] = molecular target: haemagglutinin (HA) of human influenza A type virus strain A/Ibaraki/1/90 (H3N2 subtype) (human influenza A type virus, H3N2 subtype, strain A/Ibaraki/1/90)
[9] = molecular target: haemagglutinin (HA) of human influenza A type virus strain A/Adachi/2/57 (H2N2 subtype) (human influenza A type virus, H2N2 subtype, strain A/Adachi/2/57)
[10] = molecular target: haemagglutinin (HA) of human influenza A type virus strain A/Fukuoka/C29/85 (H3N2 subtype) (human influenza A type virus, H3N2 subtype, strain A/Fukuoka/C29/85)
[11] = molecular target: haemagglutinin (HA) of human influenza A type virus strain A/Kaizuka/2/65 (H2N2 subtype) (human influenza A type virus, H2N2 subtype, strain A/Kaizuka/2/65)
[12] = molecular target: haemagglutinin (HA) of human influenza A type virus strain A/Kumamoto/1/65 (H2N2 subtype) (human influenza A type virus, H2N2 subtype, strain A/Kumamoto/1/65)
[13] = molecular target: haemagglutinin (HA) of human influenza A type virus strain A/Yamagata/120/86 (H1N1 subtype) (human influenza A type virus, H1N1 subtype, strain A/Yamagata/120/86)
[14] = molecular target: haemagglutinin (HA) of human influenza A type virus strain A/Okuda/57 (H2N2 subtype) (human influenza A type virus, H2N2 subtype, strain A/Okuda/57); remark: listed apart in the source
[15] = molecular target: haemagglutinin (HA) of human influenza A type virus strain A/Osaka/930/88 (H1N1 subtype) (human influenza A type virus, H1N1 subtype, strain A/Osaka/930/88)
[16] = molecular target: haemagglutinin (HA) of human influenza A type virus strain A/Bangkok/10/83 (H1N1 subtype) (human influenza A type virus, H1N1 subtype, strain A/Bangkok/10/83)
[17] = molecular target: haemagglutinin (HA) of human influenza A type virus strain A/Suita/1/89 (H1N1 subtype) (human influenza A type virus, H1N1 subtype, strain A/Suita/1/89)
[18] = molecular target: haemagglutinin (HA) of human influenza A type virus strain A/Kitakyushu/159/93 (H3N2 subtype) (human influenza A type virus, H3N2 subtype, strain A/Kitakyushu/159/93)
[19] = molecular target: influenza B type virus strain B/Nagasaki/1/87 (influenza B type virus, strain B/Nagasaki/1/87)
[20] = molecular target: haemagglutinin (HA) of human influenza A type virus strain A2/Aichi/2/68 (H3N2 subtype) (human influenza A type virus, H3N2 subtype, strain A2/Aichi/2/68) (UniProt P03437); remark: listed apart in the source
[21] = molecular target: haemagglutinin (HA) of human influenza A type virus strain A/PR/8/34 (H1N1 subtype) (human influenza A type virus, H1N1 subtype, strain A/PR/8/34) (UniProt P03452); remark: listed apart in the source

Molecule: fused polypeptide of scFv of C179 with two Fc binding domain-like structures of protein A
- Absorbance at 492 nm (absorbance at 492 nm) [1]: 0.303
- Absorbance at 492 nm (absorbance at 492 nm) [2]: 0.074
- Absorbance at 492 nm (absorbance at 492 nm) [3]: 0.15

B1: monoclonal antibody C179 (antibody, V domains shown)
VH: EVKLVESGGGLVQPGGSLRLSCGTSGFTLTDDYMTWVRQPPGKALEWLGFIRDRANGYTTEYSASVKGRFTISRDNSQSIVYLQMNTLRVEDSATYYCARPKGYFPYAMDYWGQGT
VL: DIQMTQSPASQSASLGESVTITCLASQTIGTWLAWYQQKPGKSPQLLIYAATSLADGVPSRFSGSGSGTKFSFKISSLQAEDFVSYYCQQLYSTPWTF
- HI activity (haemagglutination inhibition, antibody titer) (dilution ratio of the ascites fluid) [4]: < 32
- Neutralization activity (focus reduction neutralization test, antibody titer) [4]: 512
- Staining activity (antibody titer) [4]: 410000
- HI activity (haemagglutination inhibition, antibody titer) (dilution ratio of the ascites fluid) [5]: < 32
- Neutralization activity (focus reduction neutralization test, antibody titer) [5]: < 16
- Staining activity (antibody titer) [5]: < 100
- HI activity (haemagglutination inhibition, antibody titer) (dilution ratio of the ascites fluid) [6]: < 32
- Neutralization activity (focus reduction neutralization test, antibody titer) [6]: < 16
- Staining activity (antibody titer) [6]: < 100
- HI activity (haemagglutination inhibition, antibody titer) (dilution ratio of the ascites fluid) [7]: < 32
- Neutralization activity (focus reduction neutralization test, antibody titer) [7]: 1024
- Staining activity (antibody titer) [7]: 410000
- HI activity (haemagglutination inhibition, antibody titer) (dilution ratio of the ascites fluid) [8]: < 32
- Neutralization activity (focus reduction neutralization test, antibody titer) [8]: < 16
- Staining activity (antibody titer) [8]: < 100
- HI activity (haemagglutination inhibition, antibody titer) (dilution ratio of the ascites fluid) [9]: < 32
- Neutralization activity (focus reduction neutralization test, antibody titer) [9]: 1024
- Staining activity (antibody titer) [9]: 1.64e+06
- HI activity (haemagglutination inhibition, antibody titer) (dilution ratio of the ascites fluid) [10]: < 32
- Neutralization activity (focus reduction neutralization test, antibody titer) [10]: < 16
- Staining activity (antibody titer) [10]: < 100
- HI activity (haemagglutination inhibition, antibody titer) (dilution ratio of the ascites fluid) [11]: < 32
- Neutralization activity (focus reduction neutralization test, antibody titer) [11]: 2048
- Staining activity (antibody titer) [11]: 410000
- HI activity (haemagglutination inhibition, antibody titer) (dilution ratio of the ascites fluid) [12]: < 32
- Neutralization activity (focus reduction neutralization test, antibody titer) [12]: 1024
- Staining activity (antibody titer) [12]: 410000
- HI activity (haemagglutination inhibition, antibody titer) (dilution ratio of the ascites fluid) [13]: < 32
- Neutralization activity (focus reduction neutralization test, antibody titer) [13]: 1024
- Staining activity (antibody titer) [13]: 410000
- HI activity (haemagglutination inhibition, antibody titer) (dilution ratio of the ascites fluid) [14]: < 32
- Neutralization activity (focus reduction neutralization test, antibody titer) [14]: 1024
- Staining activity (antibody titer) [14]: 1.64e+06
- HI activity (haemagglutination inhibition, antibody titer) (dilution ratio of the ascites fluid) [15]: < 32
- Neutralization activity (focus reduction neutralization test, antibody titer) [15]: 512
- Staining activity (antibody titer) [15]: 410000
- HI activity (haemagglutination inhibition, antibody titer) (dilution ratio of the ascites fluid) [16]: < 32
- Neutralization activity (focus reduction neutralization test, antibody titer) [16]: 512
- Staining activity (antibody titer) [16]: 1.64e+06
- HI activity (haemagglutination inhibition, antibody titer) (dilution ratio of the ascites fluid) [17]: < 32
- Neutralization activity (focus reduction neutralization test, antibody titer) [17]: 1024
- Staining activity (antibody titer) [17]: 410000
- HI activity (haemagglutination inhibition, antibody titer) (dilution ratio of the ascites fluid) [18]: < 32
- Neutralization activity (focus reduction neutralization test, antibody titer) [18]: < 16
- Staining activity (antibody titer) [18]: < 100
- HI activity (haemagglutination inhibition, antibody titer) (dilution ratio of the ascites fluid) [19]: < 32
- Neutralization activity (focus reduction neutralization test, antibody titer) [19]: < 16
- Staining activity (antibody titer) [19]: < 100
- HI activity (haemagglutination inhibition, antibody titer) (dilution ratio of the ascites fluid) [20]: < 32
- Neutralization activity (focus reduction neutralization test, antibody titer) [20]: < 16
- HI activity (haemagglutination inhibition, antibody titer) (dilution ratio of the ascites fluid) [21]: < 32
- Neutralization activity (focus reduction neutralization test, antibody titer) [21]: 512
